Ends that are not written are not given here. * marks the point of attachment. C16 diacid = O=C(O)CCCCCCCCCCCCCCC(=O)*; Palmitoyl = CCCCCCCCCCCCCCCC(=O)*
B1: AT300 [hGIP(3-30)NH2[D9K]-C16diacid/9] (peptide)
peptide: EGTFISK(C16 diacid)YSIAMDKIHQQDFVNWLLAQK-NH2
modifications: N-terminus assumed
SMILES: CC[C@H](C)[C@H](NC(=O)[C@H](CO)NC(=O)[C@H](Cc1ccc(O)cc1)NC(=O)[C@H](CCCCNC(=O)CCCCCCCCCCCCCCC(=O)O)NC(=O)[C@H](CO)NC(=O)[C@@H](NC(=O)[C@H](Cc1ccccc1)NC(=O)[C@@H](NC(=O)CNC(=O)[C@@H](N)CCC(=O)O)[C@@H](C)O)[C@@H](C)CC)C(=O)N[C@@H](C)C(=O)N[C@@H](CCSC)C(=O)N[C@@H](CC(=O)O)C(=O)N[C@@H](CCCCN)C(=O)N[C@H](C(=O)N[C@@H](Cc1c[nH]cn1)C(=O)N[C@@H](CCC(N)=O)C(=O)N[C@@H](CCC(N)=O)C(=O)N[C@@H](CC(=O)O)C(=O)N[C@@H](Cc1ccccc1)C(=O)N[C@H](C(=O)N[C@@H](CC(N)=O)C(=O)N[C@@H](Cc1c[nH]c2ccccc12)C(=O)N[C@@H](CC(C)C)C(=O)N[C@@H](CC(C)C)C(=O)N[C@@H](C)C(=O)N[C@@H](CCC(N)=O)C(=O)N[C@@H](CCCCN)C(N)=O)C(C)C)[C@@H](C)CC
B2: AT299 [hGIP(3-30)NH2[S8K]-C16diacid/8] (peptide)
peptide: EGTFIK(C16 diacid)DYSIAMDKIHQQDFVNWLLAQK-NH2
modifications: N-terminus assumed
SMILES: CC[C@H](C)[C@H](NC(=O)[C@H](CO)NC(=O)[C@H](Cc1ccc(O)cc1)NC(=O)[C@H](CC(=O)O)NC(=O)[C@H](CCCCNC(=O)CCCCCCCCCCCCCCC(=O)O)NC(=O)[C@@H](NC(=O)[C@H](Cc1ccccc1)NC(=O)[C@@H](NC(=O)CNC(=O)[C@@H](N)CCC(=O)O)[C@@H](C)O)[C@@H](C)CC)C(=O)N[C@@H](C)C(=O)N[C@@H](CCSC)C(=O)N[C@@H](CC(=O)O)C(=O)N[C@@H](CCCCN)C(=O)N[C@H](C(=O)N[C@@H](Cc1c[nH]cn1)C(=O)N[C@@H](CCC(N)=O)C(=O)N[C@@H](CCC(N)=O)C(=O)N[C@@H](CC(=O)O)C(=O)N[C@@H](Cc1ccccc1)C(=O)N[C@H](C(=O)N[C@@H](CC(N)=O)C(=O)N[C@@H](Cc1c[nH]c2ccccc12)C(=O)N[C@@H](CC(C)C)C(=O)N[C@@H](CC(C)C)C(=O)N[C@@H](C)C(=O)N[C@@H](CCC(N)=O)C(=O)N[C@@H](CCCCN)C(N)=O)C(C)C)[C@@H](C)CC
B3: AT163 [hGIP(3-30)NH2[H18K]-C16/16] (peptide)
peptide: EGTFISDYSIAMDK(Palmitoyl)IKQQDFVNWLLAQK-NH2
modifications: N-terminus assumed
SMILES: CCCCCCCCCCCCCCCC(=O)NCCCC[C@H](NC(=O)[C@H](CC(=O)O)NC(=O)[C@H](CCSC)NC(=O)[C@H](C)NC(=O)[C@@H](NC(=O)[C@H](CO)NC(=O)[C@H](Cc1ccc(O)cc1)NC(=O)[C@H](CC(=O)O)NC(=O)[C@H](CO)NC(=O)[C@@H](NC(=O)[C@H](Cc1ccccc1)NC(=O)[C@@H](NC(=O)CNC(=O)[C@@H](N)CCC(=O)O)[C@@H](C)O)[C@@H](C)CC)[C@@H](C)CC)C(=O)N[C@H](C(=O)N[C@@H](CCCCN)C(=O)N[C@@H](CCC(N)=O)C(=O)N[C@@H](CCC(N)=O)C(=O)N[C@@H](CC(=O)O)C(=O)N[C@@H](Cc1ccccc1)C(=O)N[C@H](C(=O)N[C@@H](CC(N)=O)C(=O)N[C@@H](Cc1c[nH]c2ccccc12)C(=O)N[C@@H](CC(C)C)C(=O)N[C@@H](CC(C)C)C(=O)N[C@@H](C)C(=O)N[C@@H](CCC(N)=O)C(=O)N[C@@H](CCCCN)C(N)=O)C(C)C)[C@@H](C)CC
B4: AT298 [hGIP(3-30)NH2[I7K]-C16diacid/7] (peptide)
peptide: EGTFK(C16 diacid)SDYSIAMDKIHQQDFVNWLLAQK-NH2
modifications: N-terminus assumed
SMILES: CC[C@H](C)[C@H](NC(=O)[C@H](CO)NC(=O)[C@H](Cc1ccc(O)cc1)NC(=O)[C@H](CC(=O)O)NC(=O)[C@H](CO)NC(=O)[C@H](CCCCNC(=O)CCCCCCCCCCCCCCC(=O)O)NC(=O)[C@H](Cc1ccccc1)NC(=O)[C@@H](NC(=O)CNC(=O)[C@@H](N)CCC(=O)O)[C@@H](C)O)C(=O)N[C@@H](C)C(=O)N[C@@H](CCSC)C(=O)N[C@@H](CC(=O)O)C(=O)N[C@@H](CCCCN)C(=O)N[C@H](C(=O)N[C@@H](Cc1c[nH]cn1)C(=O)N[C@@H](CCC(N)=O)C(=O)N[C@@H](CCC(N)=O)C(=O)N[C@@H](CC(=O)O)C(=O)N[C@@H](Cc1ccccc1)C(=O)N[C@H](C(=O)N[C@@H](CC(N)=O)C(=O)N[C@@H](Cc1c[nH]c2ccccc12)C(=O)N[C@@H](CC(C)C)C(=O)N[C@@H](CC(C)C)C(=O)N[C@@H](C)C(=O)N[C@@H](CCC(N)=O)C(=O)N[C@@H](CCCCN)C(N)=O)C(C)C)[C@@H](C)CC
B5: AT294 [hGIP(3-30)NH2[E3K]-C16diacid/3] (peptide)
peptide: K(C16 diacid)GTFISDYSIAMDKIHQQDFVNWLLAQK-NH2
modifications: N-terminus assumed
SMILES: CC[C@H](C)[C@H](NC(=O)[C@H](CO)NC(=O)[C@H](Cc1ccc(O)cc1)NC(=O)[C@H](CC(=O)O)NC(=O)[C@H](CO)NC(=O)[C@@H](NC(=O)[C@H](Cc1ccccc1)NC(=O)[C@@H](NC(=O)CNC(=O)[C@@H](N)CCCCNC(=O)CCCCCCCCCCCCCCC(=O)O)[C@@H](C)O)[C@@H](C)CC)C(=O)N[C@@H](C)C(=O)N[C@@H](CCSC)C(=O)N[C@@H](CC(=O)O)C(=O)N[C@@H](CCCCN)C(=O)N[C@H](C(=O)N[C@@H](Cc1c[nH]cn1)C(=O)N[C@@H](CCC(N)=O)C(=O)N[C@@H](CCC(N)=O)C(=O)N[C@@H](CC(=O)O)C(=O)N[C@@H](Cc1ccccc1)C(=O)N[C@H](C(=O)N[C@@H](CC(N)=O)C(=O)N[C@@H](Cc1c[nH]c2ccccc12)C(=O)N[C@@H](CC(C)C)C(=O)N[C@@H](CC(C)C)C(=O)N[C@@H](C)C(=O)N[C@@H](CCC(N)=O)C(=O)N[C@@H](CCCCN)C(N)=O)C(C)C)[C@@H](C)CC
B6: AT297 [hGIP(3-30)NH2[F6K]-C16diacid/6] (peptide)
peptide: EGTKISDYSIAMDKIHQQDFVNWLLAQK
modifications: C16-diacid (1,16-hexadecanedioic acid) on Lys 6 (GIP numbering); C-terminal amide
B7: AT295 [hGIP(3-30)NH2[G4K]-C16diacid/4] (peptide)
peptide: EK(C16 diacid)TFISDYSIAMDKIHQQDFVNWLLAQK-NH2
modifications: N-terminus assumed
SMILES: CC[C@H](C)[C@H](NC(=O)[C@H](CO)NC(=O)[C@H](Cc1ccc(O)cc1)NC(=O)[C@H](CC(=O)O)NC(=O)[C@H](CO)NC(=O)[C@@H](NC(=O)[C@H](Cc1ccccc1)NC(=O)[C@@H](NC(=O)[C@H](CCCCNC(=O)CCCCCCCCCCCCCCC(=O)O)NC(=O)[C@@H](N)CCC(=O)O)[C@@H](C)O)[C@@H](C)CC)C(=O)N[C@@H](C)C(=O)N[C@@H](CCSC)C(=O)N[C@@H](CC(=O)O)C(=O)N[C@@H](CCCCN)C(=O)N[C@H](C(=O)N[C@@H](Cc1c[nH]cn1)C(=O)N[C@@H](CCC(N)=O)C(=O)N[C@@H](CCC(N)=O)C(=O)N[C@@H](CC(=O)O)C(=O)N[C@@H](Cc1ccccc1)C(=O)N[C@H](C(=O)N[C@@H](CC(N)=O)C(=O)N[C@@H](Cc1c[nH]c2ccccc12)C(=O)N[C@@H](CC(C)C)C(=O)N[C@@H](CC(C)C)C(=O)N[C@@H](C)C(=O)N[C@@H](CCC(N)=O)C(=O)N[C@@H](CCCCN)C(N)=O)C(C)C)[C@@H](C)CC
B8: AT296 [hGIP(3-30)NH2[T5K]-C16diacid/5] (peptide)
peptide: EGK(C16 diacid)FISDYSIAMDKIHQQDFVNWLLAQK-NH2
modifications: N-terminus assumed
SMILES: CC[C@H](C)[C@H](NC(=O)[C@H](CO)NC(=O)[C@H](Cc1ccc(O)cc1)NC(=O)[C@H](CC(=O)O)NC(=O)[C@H](CO)NC(=O)[C@@H](NC(=O)[C@H](Cc1ccccc1)NC(=O)[C@H](CCCCNC(=O)CCCCCCCCCCCCCCC(=O)O)NC(=O)CNC(=O)[C@@H](N)CCC(=O)O)[C@@H](C)CC)C(=O)N[C@@H](C)C(=O)N[C@@H](CCSC)C(=O)N[C@@H](CC(=O)O)C(=O)N[C@@H](CCCCN)C(=O)N[C@H](C(=O)N[C@@H](Cc1c[nH]cn1)C(=O)N[C@@H](CCC(N)=O)C(=O)N[C@@H](CCC(N)=O)C(=O)N[C@@H](CC(=O)O)C(=O)N[C@@H](Cc1ccccc1)C(=O)N[C@H](C(=O)N[C@@H](CC(N)=O)C(=O)N[C@@H](Cc1c[nH]c2ccccc12)C(=O)N[C@@H](CC(C)C)C(=O)N[C@@H](CC(C)C)C(=O)N[C@@H](C)C(=O)N[C@@H](CCC(N)=O)C(=O)N[C@@H](CCCCN)C(N)=O)C(C)C)[C@@H](C)CC

biological target: T1, human GIP receptor (human, UniProt P48546 22-466); assay: cell-based or functional assay
T1 sequence (looked up): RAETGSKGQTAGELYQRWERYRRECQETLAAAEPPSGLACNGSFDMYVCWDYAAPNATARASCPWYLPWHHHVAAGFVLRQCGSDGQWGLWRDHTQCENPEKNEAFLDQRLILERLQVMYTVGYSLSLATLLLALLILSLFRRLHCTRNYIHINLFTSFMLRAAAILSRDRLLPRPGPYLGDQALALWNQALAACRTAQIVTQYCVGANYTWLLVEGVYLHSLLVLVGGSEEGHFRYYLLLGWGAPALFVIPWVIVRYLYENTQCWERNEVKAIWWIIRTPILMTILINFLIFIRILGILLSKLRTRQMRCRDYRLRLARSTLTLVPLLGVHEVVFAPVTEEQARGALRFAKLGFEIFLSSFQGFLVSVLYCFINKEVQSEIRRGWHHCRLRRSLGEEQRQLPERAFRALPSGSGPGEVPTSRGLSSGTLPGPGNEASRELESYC

Binder	cAMP antagonism, log (IC50) [log M]	cAMP antagonism, nM (IC50) [nM]	cAMP agonism, EC50 (log) [log M]	cAMP agonism, Emax [%]	cAMP agonism, nM (EC50) [nM]
B1	-7.7	22	–	–	–
B2	-6.7	199	-7.8	15.2	15
B3	-6.7	212	–	0	–
B4	-7.5	33	–	–	–
B5	-8.6	2.5	-8.7	74	1.8
B6	-6.2	603	-7	19	9
B7	-8.1	9.5	-8.6	78.6	2.6
B8	-7.8	14	-8.6	6.7	2.6

Reference: patent US20200087373A1 (UNIVERSITY OF COPENHAGEN, published 2020)
